Laboratory results published in PMC7284817.

Legend:
[1] = target: S. mansoni neuropeptide NPP2a, membrane-anchored ligand fusion (linker-WBP1 TMP-Cub-GAL4) (S. mansoni); experiment: two-hybrid; MALAR-Y2H; β-galactosidase (ONPG) assay of diploid cells, lysate incubated 30 min at 30°C, OD405, Miller Units, mean of two clones
[2] = target: CXC-motif chemokine ligand 12 (CXCL12), membrane-anchored ligand fusion (Cub-GAL4); experiment: as above

Sequence of mouse receptor CXCR4, NubG fusion (positive control) (P70658 whole entry, the tested form may be a part): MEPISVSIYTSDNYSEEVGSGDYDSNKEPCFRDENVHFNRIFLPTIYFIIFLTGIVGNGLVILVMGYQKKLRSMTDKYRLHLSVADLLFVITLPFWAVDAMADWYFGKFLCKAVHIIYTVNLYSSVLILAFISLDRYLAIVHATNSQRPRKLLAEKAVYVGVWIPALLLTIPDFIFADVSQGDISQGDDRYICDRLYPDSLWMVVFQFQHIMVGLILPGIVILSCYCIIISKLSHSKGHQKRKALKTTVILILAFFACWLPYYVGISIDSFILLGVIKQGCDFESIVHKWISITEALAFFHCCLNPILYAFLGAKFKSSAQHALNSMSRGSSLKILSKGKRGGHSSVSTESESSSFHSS

Substance	Miller units (β-Gal activity) [1]	Miller units (β-Gal activity) [2]
Schistosoma mansoni G protein-coupled receptor GPCR14 (Smp_203500), fused to NubG	2.68 Miller units	–
mouse receptor CXCR4, NubG fusion (positive control)	–	3.07 Miller units
